According to patent US20220119529A1 (SUZHOU KANOVA BIOPHARMACEUTICAL, published 2022):
Where a chain is given by its changes, count along the chain named.

B1: #27-21 (VH2-2-VL2-1) (antibody, V domains shown)
VH: QVQLVQSGAEVVKPGASVKVSCKASGYTFTNYWMHWVKQAPGQGLEWIGMIHPNSGAFNYNERFKTRVTITVDKSTSTAYMELSSLRSEDTAVYYCARSTALATGYWGQGTLLTVSS
VL: DIQLTQSPSFLSASVGDRVTITCSASSSVSYMYWYQQKPGKSPKLLIYDTSNLASGVPSRFSGSGSGTEYTLTISSLQPEDFATYYCQQWSSYPLTFGQGTKLEIK
notes: Humanized antibody from murine #27; Detected with anti-human IgG and captured through Fc; also called #27-VH2-2/VL2-1
B2: #27-22 (VH2-2-VL2-2) (antibody, IgG1, V domains shown)
VH: B1 VH
VL: B1 VL with I21M, A83V
notes: Humanized antibody from murine #27; also called #27-VH2-2/VL2-2
B3: #27-2121 (VH2-1-VL2-1) (antibody, IgG1, V domains shown)
VH: B1 VH with K38R, I48M, L113V
VL: B1 VL
notes: Humanized antibody from murine #27; also called #27-VH2-1/VL2-1
B4: #23-5423 (VH5-4-VL2-3) (antibody, IgG1, V domains shown)
VH: QVQLVQSGAEVKKPGESLKISCKASGYNFNNYWMHWVRQRPGKGLEWIGMIHPNSGTFNYNERFKRKATLTVDKSISTAYLQWSSLKAEDTAMYYCAKSTALATDYWGQGTLVTVSS
VL: B1 VL with D1Q, Q3V, F10T, S42A, S59I, E69S, E80D
notes: Humanized antibody from murine #23
B5: #23-5424 (VH5-4-VL2-4) (antibody, IgG1, V domains shown)
VH: B4 VH
VL: B1 VL with D1Q, Q3V, F10T, I21M, S42A, S59I, E69S, L77M, E80D, A83V
notes: Humanized antibody from murine #23; also called #23-VH5-4/VL2-4

Target: T1, human B7H3-2Ig on BaF3 cells (BaF3/B7H3-2Ig) (human, UniProt Q5ZPR3 29-534)
T1 chain: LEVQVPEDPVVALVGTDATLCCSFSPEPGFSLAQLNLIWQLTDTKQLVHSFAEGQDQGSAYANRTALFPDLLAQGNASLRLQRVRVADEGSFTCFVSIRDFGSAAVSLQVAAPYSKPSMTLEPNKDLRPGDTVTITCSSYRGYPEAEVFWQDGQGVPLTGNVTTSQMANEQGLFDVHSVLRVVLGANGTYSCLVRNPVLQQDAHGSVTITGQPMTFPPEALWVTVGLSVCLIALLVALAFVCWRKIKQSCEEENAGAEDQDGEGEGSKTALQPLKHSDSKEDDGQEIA
Experiment: flow cytometry on BaF3/B7H3-2Ig cells

| Binder | EC50 [nM] |
| --- | --- |
| B1 | < 1 |
| B2 | < 1 |
| B3 | < 1 |

The binders below were run against T2, human B7H3-4Ig on BaF3 cells (BaF3/B7H3-4Ig) (human, UniProt Q5ZPR3 29-534) (assay: flow cytometry on BaF3/B7H3-4Ig cells).
T2 sequence: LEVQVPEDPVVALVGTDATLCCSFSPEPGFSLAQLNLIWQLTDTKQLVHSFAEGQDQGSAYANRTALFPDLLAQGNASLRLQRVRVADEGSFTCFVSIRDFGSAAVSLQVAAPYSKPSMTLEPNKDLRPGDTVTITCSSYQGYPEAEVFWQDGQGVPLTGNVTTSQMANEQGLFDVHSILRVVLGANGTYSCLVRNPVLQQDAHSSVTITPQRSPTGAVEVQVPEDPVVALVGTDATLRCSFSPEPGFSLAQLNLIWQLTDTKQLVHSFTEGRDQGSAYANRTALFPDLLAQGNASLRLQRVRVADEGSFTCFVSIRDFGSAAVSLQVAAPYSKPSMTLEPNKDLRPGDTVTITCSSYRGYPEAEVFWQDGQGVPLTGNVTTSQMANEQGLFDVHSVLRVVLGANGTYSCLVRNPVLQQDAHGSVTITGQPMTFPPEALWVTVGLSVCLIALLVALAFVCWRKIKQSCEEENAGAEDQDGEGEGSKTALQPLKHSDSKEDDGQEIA
Method: (§1) Cell surface binding affinity was tested with BaF3/B7H3-2Ig and BaF3/B7H3-4Ig the same method separately. Cells were washed with PBS and aliquot to 96-well U-bottom plate with a cell density of 5×10\hat{ }5 cells/well. For live/dead stain, LIVE/DEAD® Fixable Aqua Dead Cell Stain Kit (Life technologies, L34957) was applied (1:1000 in PBS, 100 ul/well) to cells, and incubated at 4° C. for 10 min FACS buffer (2% FBS in PBS, 100 ul/well) was added to each well to terminate staining. Centrifuge (1200 rpm, 5 min) to discard supernatant and wash with FACS buffer once. Humanized anti-B7H3 antibodies were diluted in FACS buffer to according concentrations and added to each well (100 ul/well). Cells were incubated at 4° C. for 30 min, and then, washed twice with FACS buffer. Alexa Fluor® 594 labeled goat anti-human IgG (Jackson Immuno Research, 109-585-088) was added (1:500 in FACS buffer) to label bounded antibodies. Cells were incubated at 4° C. for 30 min, and then, washed twice with FACS buffer.

| Binder | EC50 [nM] |
| --- | --- |
| B1 | < 1 |
| B2 | < 1 |
| B3 | < 1 |

These binders were tested against B7H3 expressed on LPS-stimulated human PBMCs (monocytes) (human) (UniProt Q5ZPR3) (assay: flow cytometry on LPS-stimulated human PBMCs).

| Binder | EC50 [nM] |
| --- | --- |
| B1 | < 1 |
| B2 | < 1 |
| B3 | < 1 |
| B4 | < 3 |
| B5 | < 3 |

Each binder was assayed against Human B7H3 (plate-coated protein, ELISA) (human) (UniProt Q5ZPR3) (assay: ELISA, antigen coated on plate, anti-human IgG-HRP).

| Binder | EC50 [nM] |
| --- | --- |
| B1 | 0.618 |
| B2 | 0.333 |
| B3 | 0.583 |
| B4 | 0.0685 |
| B5 | 0.125 |

Target: T3, Cynomolgus B7H3 (plate-coated protein, ELISA) (cynomolgus monkey)
T3 chain: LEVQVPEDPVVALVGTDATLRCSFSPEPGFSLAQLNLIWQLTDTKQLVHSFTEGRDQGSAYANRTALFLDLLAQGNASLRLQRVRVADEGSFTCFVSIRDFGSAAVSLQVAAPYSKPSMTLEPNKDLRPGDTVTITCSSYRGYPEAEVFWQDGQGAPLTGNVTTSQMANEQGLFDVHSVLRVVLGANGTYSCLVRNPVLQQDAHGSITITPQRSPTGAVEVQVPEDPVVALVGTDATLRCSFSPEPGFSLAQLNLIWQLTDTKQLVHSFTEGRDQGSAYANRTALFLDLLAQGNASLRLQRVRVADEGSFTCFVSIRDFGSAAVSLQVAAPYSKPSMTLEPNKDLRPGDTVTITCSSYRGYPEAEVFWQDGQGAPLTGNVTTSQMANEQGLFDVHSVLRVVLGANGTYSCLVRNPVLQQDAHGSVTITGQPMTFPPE
Experiment: ELISA, antigen coated on plate, anti-human IgG-HRP
Method: (§2) In order to test humanized anti-B7H3 antibody binding affinity, an ELISA analysis was carried out. Human B7H3, mouse B7H3, and cynomolgus B7H3 (2 ug/ml, in PBS) were coated on MaxiSorp 96-well plates (NUNC, 449824) in 0.5M carbonate/bicarbonate buffer, pH9.6, incubated at 4° C. overnight. Coated plates were blocked with skimmed milk (5%, in PBST) for 1 h. Humanized anti-B7H3 antibodies were diluted and added to the plates, and incubated for 2 h at room temperature. Washed three times with PBST (1×PBS with 0.05% tween-20) to eliminate un-bounded antibodies. Goat anti-Human IgG-HRP (Easybio, BE0122, 1:5000 in PBS) was added and incubated for 1 h. Washed three times with PBST (lx PBS with 0.05% tween-20) to eliminate un-bounded antibodies. TMB (eBioscience, 00-4201-56) was added (50 ul/well) for color rendering and stopped by 2N H2SO4 (50 ul/well). Optical density was measured at 450 nm and […]. As shown in FIG. 1A and Table 1, the antibodies bind to human, mouse and cynomolgus monkey B7H3 protein with high affinity. The binding ability of the mAbs to cynomolgus B7H3 is similar to that for human B7-H3 protein.

| Binder | EC50 [nM] |
| --- | --- |
| B1 | 0.685 |
| B2 | 0.584 |
| B3 | 0.494 |
| B4 | 0.042 |
| B5 | 0.0652 |

Each binder was assayed against T4, Mouse B7H3 (plate-coated protein, ELISA) (mouse, UniProt Q8VE98 29-248, limits assumed) (assay: ELISA, antigen coated on plate, anti-human IgG-HRP).
T4 sequence (looked up): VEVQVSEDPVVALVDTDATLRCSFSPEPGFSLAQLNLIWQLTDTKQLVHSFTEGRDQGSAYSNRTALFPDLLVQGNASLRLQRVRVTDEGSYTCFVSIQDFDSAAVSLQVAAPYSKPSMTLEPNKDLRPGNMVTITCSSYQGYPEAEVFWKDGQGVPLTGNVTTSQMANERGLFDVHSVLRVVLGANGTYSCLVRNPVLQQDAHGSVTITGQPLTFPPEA
Method: as §2

| Binder | EC50 [nM] |
| --- | --- |
| B1 | 0.586 |
| B2 | 0.34 |
| B3 | 0.462 |
| B4 | 1.44 |
| B5 | 4.9 |

Target: T5, Human B7-H3 extracellular domain (NCBI Reference Sequence: NM_025240.2) (human, UniProt Q5ZPR3 29-466)
T5 chain: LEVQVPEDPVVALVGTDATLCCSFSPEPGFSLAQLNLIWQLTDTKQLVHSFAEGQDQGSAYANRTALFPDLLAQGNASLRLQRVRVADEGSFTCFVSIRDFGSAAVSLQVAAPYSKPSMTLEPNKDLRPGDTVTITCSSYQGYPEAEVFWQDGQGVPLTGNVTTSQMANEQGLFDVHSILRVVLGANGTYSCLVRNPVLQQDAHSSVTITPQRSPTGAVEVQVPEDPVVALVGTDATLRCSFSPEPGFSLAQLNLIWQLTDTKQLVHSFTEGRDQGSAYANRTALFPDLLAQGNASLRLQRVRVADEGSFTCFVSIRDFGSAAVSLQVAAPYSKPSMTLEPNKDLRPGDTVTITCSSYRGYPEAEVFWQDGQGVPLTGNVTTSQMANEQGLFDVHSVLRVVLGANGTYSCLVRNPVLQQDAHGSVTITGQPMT
Experiment: SPR, Biacore 8K, antibody captured through Fc, B7-H3 ECD as analyte

| Binder | Kd [nM] | koff [s⁻¹] | kon [M⁻¹ s⁻¹] |
| --- | --- | --- | --- |
| B1 | 1.44 | 0.000431 | 299000 |
| B2 | 1.26 | 0.000365 | 288000 |
| B3 | 1.42 | 0.000433 | 306000 |
| B4 | 1.05 | 0.000345 | 329000 |
| B5 | 1.36 | 0.000356 | 263000 |

The binders below were run against B7H3 expressed on LPS-stimulated human PBMCs (monocytes) (human) (UniProt Q5ZPR3) (assay: flow cytometry (MFI) on LPS-stimulated human PBMCs; panel 'XKH007-2721').

| Binder | EC50 (read off the curve) [nM] |
| --- | --- |
| B1 | 0.06 |

Each binder was assayed against B7H3 expressed on LPS-stimulated human PBMCs (monocytes) (human) (UniProt Q5ZPR3) (assay: flow cytometry (MFI) on LPS-stimulated human PBMCs; panel 'XKH007-2722').

| Binder | EC50 [nM] |
| --- | --- |
| B2 | 0.131 |

These binders were tested against B7H3 expressed on LPS-stimulated human PBMCs (monocytes) (human) (UniProt Q5ZPR3) (assay: flow cytometry (MFI) on LPS-stimulated human PBMCs; panel 'XKH007-272121').

| Binder | EC50 [nM] |
| --- | --- |
| B3 | 0.117 |

Each binder was assayed against B7H3 expressed on LPS-stimulated human PBMCs (monocytes) (human) (UniProt Q5ZPR3) (assay: flow cytometry (MFI) on LPS-stimulated human PBMCs; panel 'XKH007 23-5423').

| Binder | EC50 [nM] |
| --- | --- |
| B4 | 1.54 |

What follows are binders tested against B7H3 expressed on LPS-stimulated human PBMCs (monocytes) (human) (UniProt Q5ZPR3) (assay: flow cytometry (MFI) on LPS-stimulated human PBMCs; panel 'XKH007 23-5424').

| Binder | EC50 [nM] |
| --- | --- |
| B5 | 1.98 |

Target: T1, human B7H3-2Ig on BaF3 cells …
Experiment: flow cytometry (MFI) on BaF3 cells stably expressing human B7H3-2Ig; panel 'BaF3/2Ig-B7H3'

| Binder | EC50 [nM] |
| --- | --- |
| B1 | 0.897 |
| B2 | 1.16 |
| B3 | 0.777 |

Each binder was assayed against T2, human B7H3-4Ig on BaF3 cells … (assay: flow cytometry (MFI) on BaF3 cells stably expressing human B7H3-4Ig; panel 'BaF3-B7H3-4Ig').
Method: as §1

| Binder | binding result |
| --- | --- |
| B4 | binds |
| B5 | binds |

The binders below were run against T2, human B7H3-4Ig on BaF3 cells … (assay: flow cytometry (MFI) on BaF3 cells stably expressing human B7H3-4Ig; panel 'BaF3/4Ig-B7H3').
Method: as §1

| Binder | EC50 [nM] |
| --- | --- |
| B1 | 0.896 |
| B2 | 0.984 |
| B3 | 0.908 |
